The values that follow come from patent publication US20130310442.

Broadly, the Kd is the equilibrium constant for the complex coming apart.

The target of series [1] is biotinylated human D-SDF-1 (Homo sapiens) (UniProt P48061). In words: pulldown. To be noted: single Kd stated after naming 193-C2-002 and 193-G2-012.
The target in series [2] is human SDF-1alpha (CXCL12) (Homo sapiens) (UniProt P48061). Briefly: SPR. To be noted: L-RNA; 5'-40 kDa PEG; Biacore 2000, 37 C. On the technique in general: Surface plasmon resonance follows binding to a sensor surface in real time, without labels.
human SDF-1alpha (CXCL12) (Homo sapiens), sequence (P48061 22-89): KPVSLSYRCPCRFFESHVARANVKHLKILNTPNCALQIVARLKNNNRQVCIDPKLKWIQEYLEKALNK

biotinylated human D-SDF-1 (Homo sapiens), sequence (P48061 22-92): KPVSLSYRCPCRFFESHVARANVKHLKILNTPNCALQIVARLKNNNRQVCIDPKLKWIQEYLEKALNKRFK

As for “GCGUGGUGUGAUCUAGAUGUAGUGGCUGAUCCUAGUCAGGUACGC [193-C2-002 (D)]”, the dissociation constant Kd in series [1] was 300 pM.
For the sequence “GCGUGGUGUGAUCUAGAUGUAUUGGCUGAUCCUAGUCAGGUACGC [NOX-A12 (193-G2-012-5'-PEG)]”, in series [2], the Kd amounted to 200 pM.
